Measurements: paper PMC10769223

Molecular target: Galectin-3-binding protein in conditioned media of HEK293T cells expressing rSulf-2 (human (endogenous in HEK293T)) (UniProt Q08380)
Experiment: affinity purification with mass spectrometry

Chain of UniProt Q08380 (Q08380 19-585): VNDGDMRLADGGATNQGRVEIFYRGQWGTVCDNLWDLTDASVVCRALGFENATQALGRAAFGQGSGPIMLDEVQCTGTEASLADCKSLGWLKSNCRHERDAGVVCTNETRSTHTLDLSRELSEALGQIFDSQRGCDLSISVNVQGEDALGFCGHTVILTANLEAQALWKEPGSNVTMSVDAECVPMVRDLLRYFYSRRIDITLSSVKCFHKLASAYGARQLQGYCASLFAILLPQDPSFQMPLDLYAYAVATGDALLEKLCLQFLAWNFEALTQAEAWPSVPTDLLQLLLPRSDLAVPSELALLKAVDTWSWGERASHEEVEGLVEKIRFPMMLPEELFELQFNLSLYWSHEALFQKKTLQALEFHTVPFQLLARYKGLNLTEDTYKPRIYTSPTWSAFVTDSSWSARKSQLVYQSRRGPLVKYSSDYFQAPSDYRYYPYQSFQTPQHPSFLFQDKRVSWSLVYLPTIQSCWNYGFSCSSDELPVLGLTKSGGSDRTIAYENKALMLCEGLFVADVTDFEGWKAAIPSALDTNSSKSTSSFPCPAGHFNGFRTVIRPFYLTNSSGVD

In the case of “rSulf-2 (HEK293T lentiviral) treated with chondroitinase ABC (enzyme)”, the fold change of the Sulf-2/LG3BP peak-area ratio against the untreated control is reported as 3 fold.
